Laboratory results from patent publication US20080107658A1 (AstraZeneca / MedImmune, published 2008).

B1: 1218H5 human IgG4 (antibody, V domains shown)
VH: EVQLVQSGAVVKKPGSSVKVSCKASGGTFSTYGISWVRQAPGQGLEWIGGIIPIFDTGSSAQSFQGRVTITADESTSTAYMEVSSLRSDDTAVYYCASSSRIYDLNPSLTAYYDMDVWGQGTMVTVSS
VL: QAVLTQPSSVSTPPGQKVTISCSGSSSNTGNNYVSWYQQLSGTAPKLLIYDNNKRPSGIPDRFSGSKSGTSATLGITGLQTGDEADYYCGTWDSSLSAWVFGGGTKLTVL
B2: 1131D7 human IgG4 (antibody, V domains shown)
VH: EVQLVQSGAEVKKPGSSVKVSCKASGGTFSTYGISWVRQAPGQGLEWIGGIIPIFDTGNSAQSFQGRVTITADESTSTAYMEVSSLRSDDTAVYYCASSSRIYDFNSSLIAYYDMDVWGQGTMVTVSS
VL: QAVLTQPSSVSTPPGQKVTISCSGSSSNIGNNYVSWYQQLPGTAPKLLIYDNNKRPSGIPDRFSGSKSGTSATLGITGLQTGDETDYYCGTWDSSLSAWVFSGGTKLTVL
B3: 1132H9 human IgG4 (antibody, V domains shown)
VH: EVQLVQSGAEVKKPGSSVKVSCKASGGTFSTYGISWVRQAPGQGLEWIGGIIPIFDTGNSAQSFQGRVTITADESTSTAYMEVSSLRSDDTAVYYCASSSRIYDLNPSLTAYYDMDVWGQGTMVTVSS
VL: QAVLTQPSSVSTPPGQKVTISCSGSSSDIGNNYVSWYQQLPGTAPKLLIYDNNKRPTGIPDRFSGSKSGTSATLGITGLQTGDEADYYCGTWDSSLSAWVFGGGTKLTVL
B4: 1145D1 human IgG4 (antibody, V domains shown)
VH: EVQLVQSGAEVKKPGSSVKVSCKASGGTFSTYGISWVRQAPGQGLEWIGGIIPIFDTSNSAQSFQGRVTITADESTSTAYMEVSSLRSDDTAVYYCASSSRIYDFRTLYSTYYDMDVWGQGTMVTVSS
VL: QAVLTQPSSVSTPPGQKVTISCSGSSSNIGNNYVSWYQQLPGTAPKLLIYDNNKRPSGISDRFSGSKSGTSATLGIAGLQTGDEADYYCGTWDSSLSAWVFGGGTKLTVL
B5: 1134D9 human IgG4 (antibody, V domains shown)
VH: EVQLVQSGAEVKKPGSSVKVSCKASGGTFSTYGISWVRQAPGQGLEWIGGIIPIFDTGNSAQSFQGRVAITADESTSTAYMEVSSLRSDDTAVYYCASSSRIYDLNPSLTAYYDMDVWGQGTMVTVSS
VL: QAVLTQPSSVSTPPGQKVTISCSGSSSNIGNNYVSWYQQLPGTAPKLLIYDNNKRPSGIPDRFSGSKSGTSATLGITGLQTGDEADYYCGTWDSGLSAWVFGGGTKLTVL
B6: G1230H7 human IgG4 (antibody, V domains shown)
VH: QVQLVQSGAEVKKPGSSVKVSCKASGGTFSTYGISWVRQAPGQGLEWMGGIIPIFDTGNSAQSFQGRVTITADESTSTAYMELSSLRSEDTAVYYCARSSRIYDFNSALISYYDMDVWGQGTMVTVSS
VL: QSVLTQPPSVSAAPGQKVTISCSGSSSNIGNNYVSWYQQLPGTAPKLLIYDNNKRPSGIPDRFSGSKSGTSATLGITGLQTGDEADYYCGTWDSSLSAWVFGGGTKLTVL
B7: 1126G5 human IgG4 (antibody, V domains shown)
VH: EVQLVQSGAEVKKPGSSVKVSCKASGGTFSTYGISWVRQAPGQGLEWIGGIIPIFDTGNSAQSFQGRVTITADESTSTAYMEVSSLRSDDTAVYYCASSSRIYDFTSGLAPYYDMDVWGQGTMVTVSS
VL: QAVLTQPSSVSTPPGQKVTISCSGSSSNIGNNYVSWYQQLPGTAPKLLIYDNNKRPPGIPDRFSGSKSGTSATLGITGLQTGDEADYYCGTWDSSLSTWVFGGGTKLTVL
B8: 1131H2 human IgG4 (antibody, V domains shown)
VH: EVQLVQSGAEVKKPGSTVKVSCKASGGTFSTYGISWVRQAPGQGLEWIGGIIPIFDTGNSAQSFQGRVTITADESTSTAYMEVSSLRSDDTAVYYCASSSRIYDLNPSLTAYYDMDVWGQGTMVTVSS
VL: QAVLTQPSSVSTPPGQKVTISCSGTSSNIGNNYVSWYQQLPGTAPKLLIYDNNKRPSGIPDRFSGSKSGTSATLGITGLQTGDEADYYCGTWDSSLSAWVFGGGTKLTVL
B9: 1230H7 human IgG4 (antibody, V domains shown)
VH: EMQLVQSGAEVKKPGSSVKVSCKASGGTFSTYGISWVRQAPGQGLEWIGGIIPIFDTGNSAQSFQGRVTITADESTSTAYMEVSSLRSDDTAVYYCASSSRIYDFNSALISYYDMDVWGQGTMVTVSS
VL: QAVLTQPSSVSTPPGQKVTISCSGSSSNIGNNYVSWYQQLPGTAPKLLIYDNNKRPSGIPDRFSGSKSGTSATLGITGLQTGDEADYYCGTWDSSLSAWVFGGGTKLTV
B10: 1132A9 human IgG4 (antibody, V domains shown)
VH: EVQLVQSGAEVKKPGSSVKVSCKASGGTFSTYGISWVRQAPGQGLEWIGGIIPIFGTGNSAQSFQGRVTITADESTSTAYMEVSSLRSDDTAVYYCASSSRIYDFEPSLIYYYDMDVWGQGTMVTVSS
VL: QAVLTQPSSVSTPPGQKVTISCSGSSSNIGNNYVSWYQQLPGTAPKLLIYDNNKRPSGIPDRFSGSKSGTSATLGITGLQTGDEADYYCGTWDSSLSAWVFGGGTKLTVL
B11: 1127F9 human IgG4 (antibody, V domains shown)
VH: EVQLVQSGAEVKKPGSSVKVSCKASGGTFSTYGISWVRQAPGQGLEWIGGIIPIFDTGNSAQSFQGRVTITADESTSTAYMKVSSLRSDDTAVYYCASSSRIYDYIPGMRPYYDMDVWGQGTMVTVSS
VL: QAVLTQPSSVSTPPGQKVTISCSGNSSNIGNNYVSWYQQLPGTAPKLLIYDNNKRPSGIPDRFSGSRSGTLATLGITGLQTGDEADYYCGTWDSSLSAWVFGGGTKLTVL
B12: 1126H5 human IgG4 (antibody, V domains shown)
VH: EVQLVQSGAEVKKPGSSVKVSCKASGGTFSTYGISWVRQAPGQGLEWIGGIIPIFDAGNSAQSFQGRVTITADESTSTAHMEVSSLRSEDTAVYYCASSSRIYDHHIQKGGYYDMDVWGQGTMVTVSS
VL: QAVLTQPSSVSTPPGQKVTISCSGSSSNIGNNYVSWYQQLPGTAPKLLIYDNNKRPSGIPDRFSGSKSGTSATLGITGLQTGDEADYYCGTWDSSLSAWVFGGGTKLTVL
B13: 1127D9 human IgG4 (antibody, V domains shown)
VH: EVQLVQSGAEVKKPGSSVKVSCKASGGTFSTYGISWVRQAPGQGLEWIGGIIPIFDTGNSAQSFQGRVTITADESTSTAYMEVSSLRSDDTAVYYCASSSRIYDYHTIAYYDMDVWGQGTMVTVSS
VL: QAVLTQPSSVSTPPGQKVTISCSGSSSNIGNNYVSWYQQLPGTAPKLLIYDNNKRPSGIPDRFSGSKSGTSATLGITGLQTGDEADYYCGTWDSSLSAWVFGGGTKLTVL
B14: 1126F1 human IgG4 (antibody, V domains shown)
VH: EVQLVQTGAEVKKPGSSVKVSCKASGGTFSTYGISWVRQAPGQGLEWIGGIIPIFDTGNSAQSFQGRVTITADESTSTAYMEVSSLRSDDTAVYYCASSSRIYDANRQAVPYYDMDVWGQGTMVTVSS
VL: QAVLTQPSSVSTPPGQMVTISCSGSSSDIGNNYVSWYQQLPGTAPKLLIYDNNKRPSGIPDRFSGSKSGTSATLGITGLQTGDEADYYCGTWDSSLSAWVFGGGTKLTVL
B15: 1227H8 human IgG4 (antibody, V domains shown)
VH: QMQLVQSGAEVKKTGSSVKVSCKASGHTFAYHYLHWVRQAPGQGLEWMGGIIPIFGTTNYAQRFQDRVTITADESTSTAYMELSSLRSEDTAVYYCASADYAWESYQPPQINGVWGRGTMVTVSS
VL: QSVLTQPPSVSAAPGQKVTITCSGSTSNIGNNYVSWYQQHPGKAPKLMIYDVSKRPSGVPDRFSGSKSGNSASLDISGLQSEDEADYYCAAWDDSLSEFFFGTGTKLTVL
B16: 1230D8 human IgG4 (antibody, V domains shown)
VH: QMQLVQSGAEVKKTGSSVKVSCKASGYTFPYHYLHWVRQAPGQGLEWMGGIIPIFGTTNYAQRFQDRVTITADESTSTAYMEFSSLRSEDTAVYYCASADYVWESYHPATSLSLWGRGTMVTVSS
VL: QSVLTQPPSVSAAPGQKVTISCPGSTSNIGNNYVSWYQQRPGKAPKLMIYDVSKRPSGVPDRFSGSKSGNSASLDISELQSEDEADYYCAAWDDSLSEFLFGTGTKLTVL

How the values were obtained:
Experiment in all cases: cell-based or functional assay
[1] = target: mouse nerve growth factor (mouse, UniProt P01139 122-241)
[2] = target: human nerve growth factor (beta-NGF) (human, UniProt P01138 122-241)
[3] = target: rat nerve growth factor (beta-NGF) (rat, UniProt P25427 122-241)
rat nerve growth factor (beta-NGF), sequence (P25427 122-241): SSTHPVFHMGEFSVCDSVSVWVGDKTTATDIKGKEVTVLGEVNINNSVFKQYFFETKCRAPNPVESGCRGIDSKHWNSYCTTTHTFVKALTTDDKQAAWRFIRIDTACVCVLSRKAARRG

mouse nerve growth factor, sequence (P01139 122-241): as the sequence (P25427 122-241) above, with G40A, K50R, P61S, D94E, A117T counted along it
human nerve growth factor (beta-NGF), sequence (P01138 122-241): as the sequence (P25427 122-241) above, with T3S, V6I, M9R, T37M, A60D, E65D, T92M, D94G, A117V, G120A counted along it

Binder | IC50, FLIPR calcium mobilisation [1] [pM] | IC50, FLIPR calcium mobilisation [2] [pM] | IC50, PC12 cell survival [2] [pM] | IC50, FLIPR calcium mobilisation [3] [pM] | IC50, PC12 cell survival [3] [pM]
B1 | 150 | 330 | 470 | 130 | 
B2 | 71000 | 117000 | 670000 | 37000 | 
B3 | 160 | 350 | 550 | 130 | 
B4 | 240 | 360 | 660 | 170 | 
B5 | 160 | 310 | 540 | 140 | 
B6 | 250 | 310 | 2500 | 340 | 7500
B7 | 160 | 230 | 1500 | 160 | 
B8 | 120 | 270 | 580 | 110 | 
B9 | 150 | 270 | 420 | 180 | 320
B10 | 330 | 390 | 900 | 250 | 
B11 | 200 | 360 | 590 | 140 | 
B12 | 230 | 380 | 8700 | 150 | 
B13 | 210 | 400 | 570 | 220 | 
B14 | 220 | 350 | 2900 | 150 | 
B15 | 480 | 440 | 700 | 430 | 35000
B16 | 370 | 310 | 710 | 290 | 37000
